The data set is described as follows: label from the status in PepcDB records.

Consider “MAISVFDLFKIGIGPSSSHTVGPMRAAALFTAALRQRQALSAVRRLEVRLYGSLSATGVGHGTDRAVIMGLMGEWPDRIDPTQIAPRMAALLDSGLLQLDGRVAVPFDWVRDMRLLDENLPYHPNAMTLVAYGEQGELHQETYYSVGGGFVVDAAQAASGQLDQDHTVLPYDFSSAEELLLLCKRHNLRVSELMLANERIWRSETDIREGLRRIWQAMRDCVDNGLRNEGILPGGLNVQRRAARLHRNLQEIGKPNVIGSTLSAMEWVNLFALAVNEENAAGGRMVTAPTNGAAGIIPAVLHYYMKFNPDAQDRDVVDYLLAAAAVGILCKKNASISGAEVGCQGEVGSACAMAAAGLAEVLGATPAQVENAAEIGLEHNLGLTCDPVGGLVQVPCIERNAIAAVKAINAAQMALRGDGQHFISLDKVIRTMRDTGADMHDKYKETSRGGLAVNAIE”, for which the protein production entry was “failed”.

Regarding “MAITVKGLTNKLTRTQRRIAVVEFIFSLLFFLPKEAEVIQADFLEYDTKERQLNEWQKLIVKAFSENIFSFQKKIEEQQLKNQLEIQTKYNKISGKKIDLLTTAVVLCALSEQKAHNTDKPLLISEALLIMDHYSQGAEKKQTHALLDKLL”, the protein production result is “not failed”.

Consider “MAKAIVSIFVVFFIFFLVISDVPEIEAQGNECLKEYGGDVGFGFCAPRIFPTICYTRCRENKGAKGGRCRWGQGSNVKCLCDFCDDTPQ”, for which the protein production result is “not failed”.

With “MAKEKTLDDLFHDTLKDIYYAERKILKALPKMARAAQAPELKAAFEKHKEQTETHVERLQQVFEMIGKRAQGKTCEAIEGIVAEGEEIMDEFKGTAALDAGLISAAQAVEHYEISRYGTLKTWAKTIGLKDAVSLLDATLKEEVVTDEDLTKLAMAQVNKKAA”, the protein production entry was “not failed”.

Regarding “MAKETVCVTGANGFIGSWIIRTLIEKGYTKIHASIYPGSDPTHLLQLPGSDSKIKIFEADLLDSDAISRAIDGCAGVFHVASPCTLDPPVDPEKELVEPAVKGTINVLEAAKRFNVRRVVITSSISALVPNPNWPEKVPVDESSWSDLDFCKSRQKWYPISKTLAEKAAWEFSEKHGTNIVTIHPSTCLGPLLQPNLNASCAVLLQLLQGSTETQEHHWLGVVHVKDVAKGHVMLFETPDASGRFLCTNGIYQFSEFAALVSKLFPEFAVHKFDKETQPGLTSCNDAAKRLIELGLVFTAVEDAVKETVQSLRDKGFL”, the protein production result is on record as “failed”.

Consider “MAKGGFPGFGGNINNLVKQAQKMQRDMERVQEELKEKTVEASAGGGAVTVVATGRKDIKEITIKPEVVDPDDVEMLQDLILAAVNEALRKADEMVTAEISKITGGLGGIPGLF”, for which the protein production entry is recorded as “not failed”.

“MAKHLGESKQKLLQLMALSCPIRLNNAPRRLAKQARSQRIKRNISKGPGMSLSRCLSGLSNLLHYRREWLRADLRAGLSVAAIQIPIAIAYAQIVGLPPQYGLYACVLPMIVYALIGSSRQLMVGPDAATCAMLGGAVAPLAMGDLQRTVELSMIVTVLVGLMLIAAGIARAGFIASFFSRPILIGYLNGIGLSLIAGQMGKVVGFKIEGDGFILGLADFLQRLGEIHGLTLAVGLASLGLLIWLPRRYPRVPAALLTVALFTLLAGLLGFDRLGVAILGHVPAGMPELSWPKTTLEESKSLLRDALGIATVSFCSAMLTARSFAARHGYAINANHEFIALGLSNLAAGASQGFAISGADSRTAVNDMAGGKSQLVGIIAALAIALILLFFTAPMAWIPQPALGAVLLMAGWGLLDVKSLKQIYRLSRFEFWLCLLTTVSVLGLGVLPGIMFAVTLAILRLLYSIYQPTDAVLGWMPGIEGQVDIRQYPQARTVPGLVVYRFDDAILFFNADYFKMRLLDTVQRESQPEVVLFDAEAVTDIDVSGIAVLREIRETLAAQGIYFAIARARGTFLAMLERSGMTREMDSQLLFGSVRSGIRTYRIWRNSMRGKQ”: the protein production result is “failed”.

As for “MAKIKKYTTKTGKIRYEFQVYAGVDSLTGRQKTTRRRGFKTRKEASIVLSRLELEIEKRGLQEDERRFFRDVCAEWMEQYRLTVRESTLEKTQRIINIHVLPAFGDMVINNITPNVCQKVVNKWFLEAKSYKKWLNYASMIFDYALRAEYVGRNPCTLVTMPRVQEQAGEKLENFWTRDELNTFFDYVTPERDVEQFTMFRVLAYSGIRKGELLALTWKDINFEDNTLRVNKTLTQGLGGKLIVQPPKSRAGRRTIDLDDSTMRYLRQWKGVQRETFLGMGFNTNNVDQLVFASNRNHFRSMNTPTKWLNKAIKATGLKHISIHGFRHTHASLLYQSGVGLKETQQRLGHSRADSSVTLDVYTHTTEQQNVAALQRFENYVEAK”, the protein production entry was “failed”.

These data come from a protein production outcome set (Wang et al. 2014).
